Laboratory results published in patent US8492099B2, “Method of measuring enzymatic activity of adsorbed allergenic enzyme” (Alk-Abello A/S, priority 2005, dated 2013).

Key:
papain = target: T1, papain (Carica papaya, UniProt P00784); conditions: 12.5 nM E-64, papain 5 nM
T1 sequence (P00784 134-345): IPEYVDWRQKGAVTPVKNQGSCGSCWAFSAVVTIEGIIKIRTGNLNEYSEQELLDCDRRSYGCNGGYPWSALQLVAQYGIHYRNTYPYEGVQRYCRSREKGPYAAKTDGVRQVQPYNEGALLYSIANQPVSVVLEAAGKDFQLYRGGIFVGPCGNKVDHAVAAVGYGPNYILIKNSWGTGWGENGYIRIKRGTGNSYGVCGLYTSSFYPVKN
Procedure: Stock solutions of 1M DTT and 100 mM EDTA were made in the beginning of the experimental period, frozen at −20° C., and used through the entire project period. Each day a new buffer was made containing the reducing agent DTT and EDTA from the stock solutions. […] DTT is continuously oxidized by the oxygen in the air and therefore a new buffer must be made each day. […] The microtiter plate was opaque to avoid cross contamination of emitted fluorescence between wells. The substrate was diluted to the final concentration in the newly made buffer containing DTT and EDTA and transferred to the microtiter plate. The enzyme was diluted in the same buffer and incubated 10 min in the case of papain and 20 min in the case of Der p 1, for their activation. Mixing, transferring and incubation were carried out at room temperature. After incubation the enzyme solution was transferred to the microtiter plate and the measurements were initiated. The measurements were carried out for 10 min with a total of 36 measurements for each well and automatic mixture between each measurement.
EDTA was added at 1 mM, and DTT at 5 mM final concentrations.

[1] = Quenching of AMC fluorescence by aluminium hydroxide; assay type: physicochemical; conditions: 1 μM AMC, during the time of the assay
Source text: This AMC concentration is equivalent to the enzymatic assay AMC concentration generated by papain and Der p 1.

[2] = Der p 1 enzyme activity fluorescence assay (activity measurements and Michaelis-Menten kinetic), Der p 1/aluminium hydroxide adsorption experiment; assay type: biochemical
Procedure: After measuring the enzymatic activity the maximal slope of the progress curve was estimated using the software SoftMax® PRO Life Sciences Edition, Molecular Devices, 2001. After estimating the initial velocity of the experiments they were transferred to Prism and analyzed.
After adsorption 500 μL was taken out for further analysis and the rest of the mixture was centrifuged for 10 min at 4000 rpm. An elution step was performed for 1 h at 4° C. where the pellet of Mix2 was resuspended in phosphate buffer. […] Con1 was analyzed in the beginning of the experiment and Con2 was analyzed at the end of the 2 hours experiment.
Different types of enzymatic assays were performed: (i) activity measurements using a fixed substrate concentration to evaluate enzyme activity, and (ii) Michaelis-Menten kinetic to estimate the kinetic parameters Vmax and KM.
All activity assays were conducted with Tris buffer, pH 7.0, 5 mM DTT, 1 mM EDTA and Boc-QAR-AMC as substrate.

[3] = Adsorption of Der p 1 to aluminium hydroxide: protein concentration by A280; assay type: physicochemical
Source text: The aromatic amino acids tryptophan, tyrosine and phenylalanine absorb ultraviolet light. However only tryptophan and tyrosine absorb at 280 nm and tryptophan absorbs 5 times more light than tyrosine. This is due to the […] transition in the indole ring of tryptophan where phenylalanine and tyrosine contains a phenyl group. The absorbance of a protein is linearly correlated with the amount of tryptophan and tyrosine in the protein, the length of the light path and the concentration of protein. This relationship is named Lambert-Beer's law and is given by: A=ε·l·c where A is the absorbance, ε is the molar absorption coefficient for the protein (determined by the amount of tryptophan and tyrosine in the protein) l is the length of the light path and c is the protein concentration. Thus from an absorbance measurement the concentration of protein can be estimated if the molar absorptivity coefficient is known. • Apparatuses • Lambda 800 UV/VIS Spectrometer, PerkinElmer™ • 100-QS, quartz cuvette, path length 1 cm, Hellma® • Materials and Reagents • 50 mM Bis-Tris pH 6.5, Sigma • 50 mM Tris pH 7.0, Sigma • 50 mM phosphate buffer pH 7.0, Merck • 2% Helmanex solution, Hellma Experimental Procedure
The spectrophotometer was turned on 30 min prior to use for a warm up period. The wavelength of the spectrophotometer was set to 280 nm and the instrument was zeroed to a blank sample containing the matrix of the true sample. The quartz cuvette was washed first with a 2% Helmanex solution and then 4 times with MQ water and afterwards dried with high pressure air. […] After cleaning the cuvette 20 μL of sample was transferred to the cuvette and the absorbance was measured.
(§1) After adsorption 500 μL was taken out for further analysis and the rest of the mixture was centrifuged for 10 min at 4000 rpm. […] Con1 was analyzed in the beginning of the experiment and Con2 was analyzed at the end of the 2 hours experiment.
The absorbance measurements were converted to protein concentration by the Lambert-Beer's law using a molar absorption coefficient for Der p 1 of […] as shown in table 8a. […]

[4] = Adsorption of Der p 1 to aluminium hydroxide: protein concentration by rocket immune electrophoresis (RIE); assay type: physicochemical
Source text: This method was used to quantify a given protein by measuring the propagation of protein-antibody complex after electrophoresis in an agarose gel containing antibodies directed against the protein under investigation.
This method is based on the mobility of protein-antibody complex in an agarose gel during electrophoresis. The antibodies are incorporated into the agarose gel during polymerization and the sample protein is then applied to the wells. The proteins move according to their electrophoretic mobility encountering the antibodies in the gel and forming complexes. These complexes grow in size as the antigen encounters more and more antibodies thereby limiting the migration through the pores of the gel until no further migration occurs. The complexes are visualized by staining the gel. The area delimited by the complexes is proportional to the amount of protein applied to the well. The quantification is performed relative to an internal standard preparation applied in a dilution series on the same gel.
A glass plate was placed on a leveled surface and cleaned with ethanol. 11 mL agarose was pipetted into a test tube in a 56° C. water bath, 15 μL antibody was added, and the solution was mixed gently by inversion. The agarose was poured onto the glass plate carefully avoiding formation of air bubbles. After gelation a series of wells were punched 1.5 cm from the lower edge of the plate. The plate was placed on the cooled surface of the electrophoresis apparatus. Connecting bridges of 5 layers of filter paper were established and the voltage across the gel adjusted to 2V/cm. 10 μL of sample was applied to the wells. […]
as §1
Another method applied to quantify protein content was RIE. The samples Con1, Con2, Sup, and Elu were evaluated together with three Der p 1 standards (125 ng, 250 ng, and 500 ng). […]

[5] = test system: IgE from sera of HDM allergic patients; assay: IgE inhibition assay (ADVIA centaur); assay type: binding, human
Procedure: This assay evaluates the capacity that an allergen has to bind IgE from sera of patients allergic to that allergen source.
IgE inhibition experiments were performed on an ADVIA centaur instrument. Serial dilutions (performed with the TECAN (P-05-07F294)) of the inhibitor (Antigen in solution or antigen gel adjuvant vaccine) were mixed with a fixed amount of biotinylated antigen and further incubated with a solid phase absorbed IgE. The amount of biotinylated allergen bound to the solid phase was estimated as the light emitted after incubation with streptavidin labelled with acridinium ester. The raw data was processed in Excel and transferred to GraphPad Prism v. 4.0 for the final analysis (curve fitting, plotting and statistical comparisons). The data was fitted to a four parameter logistic function:
After the adsorption the solution was centrifuged for 5 minutes at 13,000 rpm. […] A Der p extract sample was prepared for incubation with pooled sera IgE.

[6] = Adsorbed: Der p 1 adsorbed to aluminium hydroxide (mix 2)
[7] = Control: Der p 1 in the absence of aluminium hydroxide
[8] = Eluted: Der p 1 eluted from aluminium hydroxide with phosphate buffer

Molecule: CC(C)C[C@H](NC(=O)[C@H]1O[C@@H]1C(=O)O)C(=O)NCCCCN=C(N)N (relative stereo) [E-64, L-trans-epoxysuccinyl-L-leucylamido (4-guanidino) butane]
- Inhibition of papain enzyme activity (papain): does not completely inhibit

Molecule: Cc1cc(=O)oc2cc(N)ccc12 [AMC]
- Quenching of fluorescence by aluminium hydroxide [1]: no quenching occurred

B1: Der p 1: major house dust mite allergen, family C1 cysteine protease, purified from D. pteronyssinus extract (protein, UniProt P08176 99-320, looked up)
Peptidase 1: TNACSINGNAPAEIDLRQMRTVTPIRMQGGCGSCWAFSGVAATESAYLAYRNQSLDLAEQELVDCASQHGCHGDTIPRGIEYIQHNGVVQESYYRYVAREQSCRRPNAQRFGISNYCQIYPPNVNKIREALAQTHSAIAVIIGIKDLDAFRHYDGRTIIQRDNGYQPNYHAVNIVGYSNAQGVDYWIVRNSWDTNWGDNGYGYFAANIDLMMIEEYPYVVIL
- Vmax in Mix2 relative to Vmax in Mix1 [2]: 62%
- Vmax in Sup relative to Vmax in Mix1 [2]: 30%
- Km [2, 6]: 56 µM
- Vmax [2, 6]: 0.15 ng/mL · s
- kcat (Vmax/protein concentration, A280) [2, 6]: 0.022 s⁻¹
- kcat (Vmax/protein concentration, RIE) [2, 6]: 0.019 s⁻¹
- Vmax [2, 7]: 0.25 ng/mL · s
- kcat (Vmax/protein concentration, A280) [2, 7]: 0.024 s⁻¹
- kcat (Vmax/protein concentration, RIE) [2, 7]: 0.018 s⁻¹
- Km ([2]; Control: Der p 1 in the absence of aluminium hydroxide, Boc-QAR-AMC, pH 7.0): 47 µM
- Km [2, 8]: 51 µM
- Vmax [2, 8]: 0.11 ng/mL · s
- kcat (Vmax/protein concentration, A280) [2, 8]: 0.025 s⁻¹
- kcat (Vmax/protein concentration, RIE) [2, 8]: 0.014 s⁻¹
- Difference between Vmax of Con1 and Mix1 ([2]; Newman Keuls multiple comparison test p>0.05): no significant difference
- Activity in Mix2 found in Elu ([2]; Vmax): 68%
- Activity of Der p 1 adsorbed to aluminium hydroxide ([2]; activity measurements): 66%
- Adsorbed activity desorbed after elution from Mix2 with phosphate buffer ([2]; activity measurements): 67%
- Activity of non adsorbed Der p 1 in Sup relative to activity in Mix1 ([2]; activity measurements, 100 μM Boc-QAR-AMC): 33%
- Part of the Der p 1 molecules adsorbed to the aluminium hydroxide ([2]; conclusion): 60-70%
- Vmax of Con2 lower than Vmax in Con1 ([2]; end vs beginning of 2 hours experiment, absence of aluminium hydroxide, t-test p-value=0.0024): 14%
- Difference between KM means of the samples ([2]; one-way ANOVA p-value=0.62): no significant difference
- Difference in activity between Con1, Con2 and Mix1 ([2]; one-way ANOVA p-value=0.76, 2 hours experiment): no significant difference
- Adsorbed protein eluted from aluminium hydroxide using phosphate buffer [3]: 56%
- Protein content in Con1 found in Sup [3]: 32%
- Adsorption degree ([3]; 100 μg/mL Der p 1, 1.14 mg/mL aluminium hydroxide, 1 h at 4° C.): approximately 70%
- Adsorbed protein eluted from aluminium hydroxide using phosphate buffer [4]: 98%
- Adsorption degree [4]: approximately 56%
- Protein content in Con1 found in Sup [4]: 44%
- Inhibition of IgE binding, bottom levels of Con1 and Elu ([5]; Der p 1 without aluminium hydroxide (Con1) vs eluted from aluminium hydroxide (Elu)): complete inhibition is possible
- Hill slopes of Con1 and Elu ([5]; one sample t-test p=0.83): not significantly different
